Earlier results on one substance are cited in publication PMC5912896.

This data set addresses Akt PH domain (Homo sapiens) (UniProt P31749).
UniProt P31749, sequence (P31749 2-111): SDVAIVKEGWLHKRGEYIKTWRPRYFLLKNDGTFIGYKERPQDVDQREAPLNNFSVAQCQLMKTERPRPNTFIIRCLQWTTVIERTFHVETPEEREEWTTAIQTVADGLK

In general, Kd refers to a measure of binding affinity in units of concentration. Regarding Akt-in peptide (TCL1 A strand), the Kd was 18 µM.
